± gives the half width of the 95% confidence interval.
What was measured:
[1] = folding stability dG unfold (combined trypsin and chymotrypsin); higher = more stable
How it was run: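 Sequencing followed digestion of designed mini-proteins with trypsin and chymotrypsin, each at 11 concentrations in threefold dilutions together with a no-protease condition. The mini-proteins were under 80 residues, had no cysteine, sat in a PA-tagged cDNA display construct, and were kept only if AlphaFold2 dimer inter-PAE was above 15. From the counts, Bayesian fitting gave K50, and unfolding free energy was derived against a sequence-predicted unfolded-state K50 and a shared folded-state K50, per protease or combined.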

[2] = folding stability dG unfold from trypsin proteolysis; higher = more stable
Method: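 Folding stability of de novo designed mini-proteins (<80 aa, no Cys; designed by TrROS, TrMRF, ProteinMPNN and the joint model) was measured by cDNA display proteolysis with trypsin and chymotrypsin. Each protease was used at 11 concentrations in a threefold dilution series plus a no-protease condition. K50 was inferred by Bayesian fitting of sequencing counts, and dG unfold was derived against a sequence-predicted unfolded-state K50 (Tsuboyama et al. method). Sequences shown include variable-length N-terminal GS-type padding (SAGGSAGG...) inside a display construct carrying a PA tag. Rows were kept only if the AF2 dimer inter-PAE was >15, to exclude likely homo-oligomers.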

| Sequence | folding stability dG unfold [1] [kcal/mol] | folding stability dG unfold [2] [kcal/mol] |
| --- | --- | --- |
| SAGGSAGGSAGGSPLIVEFKGDELRNTIPSGFEVLSEERDPELGYVRAALRALGSGETLSAGGSAGGSAGGS [r4_435_TrMRF] | < -1 | -0.707 ± 0.27 |
| SAGGSAGGSSPPVVTVEKYSEEPSPGVLRAVIRHPDGKEIVVTFEDLSPEEAKARAEEVAKLGSAGGSAGGS [r20_181_JUSTAS] | < -1 | 0.00637 ± 0.068 |
| SAGGSAGGSAGKKVVTIDIPIDNPEELEVAEEIAREAAKELGVPPEEIPVTWEGNYLRIESAGGSAGGSAGG [r11_218_TrMRF] | < -1 | -0.423 ± 0.075 |
| SAGGSAGGSASIEVEAEPAEIEKVAEEAPEDEEVLVRDPKTGRVYLVKPDEVVLLREVPALLSAGGSAGGSA [r18_246_JUSTAS] | -0.821 ± 0.48 | -0.238 ± 0.086 |
| SAGGSAMEVKIIPGSKEAIINDPENGKPIPATIIEIEPIEPDKNLFKAKVKIPSNGGWKEVLVDLGSAGGSA [r15_209_TrMRF] | < -1 | -1.23 ± 0.39 |
| SAGEELLREIAKKLNLPEGAEIVKVEIKVEEKDGRLRITITITVRNKETGELKTIEIEIEIELPEEEEESAG [r5_94_TrROS_Hall] | 4.01 ± 0.43 | 3.9 ± 0.27 |
| SAGGSIIIRGPSPDQAEEAARAFAKNFREQFPENPNMEIPVKVEYEDPENGQRQEYEAEIKIPYPDSAGGSA [r2_393_TrROS] | < -1 | 0.0648 ± 0.16 |
| SAGGSAGGSAGMPPNTVVLRESLEPGRVVLTLAVVTPGSVASVEVTEEFPVVPGTGVVVGSAGGSAGGSAGG [r11_66_JUSTAS] | 0.139 ± 0.13 | 0.706 ± 0.038 |
| SAGGSAGGKIEIVIEGLSEEEVEALAKELRDAGLEIEVTVVPPPAPPPLTAEELAKNPEALKALSAGGSAGG [r6_804_TrROS_Hall] | 0.02 ± 0.26 | 0.714 ± 0.053 |
| SPLTPEQIEELAKEIAQEFPNVKVKIYPNDEPIEIKAPGAEIEIWPPPGEFYIQIEFPGNGKPKQIPIPPSA [r9_1062_TrROS] | -0.583 ± 0.25 | 0.00765 ± 0.051 |
| SAGGSETITIEIEINGAKIKLTFTKNEDGTLTVTAEITLPNGKKLRVTMEFDKKTKEWKITSIEPVSAGGSA [r2_402_TrROS_Hall] | > 6 | 4.37 ± 0.39 |
| SAGGMEVVENPGGNLKIIEKEPEGPEFVKTTTTTIKTFKNPGGSTSSTITTTTTTVKISKSKNPELLSAGGS [r16_802_JUSTAS] | -0.784 ± 0.3 | -0.742 ± 0.26 |
| SAGGSAGGKKKFKVEKITEIKVEKLENGEEVIVKIRLKNGEEIEIPAKDIKLEDLPEGAEIEVISAGGSAGG [r6_609_TrROS_Hall] | < -1 | 0.123 ± 0.34 |
| SAGGSAGGMNKIKVTTSVTTFEETVLAGNKTFTVTLLKKTTTITDPNSSKVTTITETKSPEELSSAGGSAGG [r6_752_JUSTAS] | -0.135 ± 0.27 | 0.294 ± 0.27 |
| SAGGSPIYVRIEWEPPGNGKEREKEIPIKNVDSPDQLVDEAKEEAMKDGGPIKDIEVYDPDDGRPFPLSAGG [r13_771_TrROS] | -0.192 ± 0.53 | 0.598 ± 0.11 |
| SAGGSASLDIVEELIEEEIKDSKGTKIKILKPIIYYPGKGLVLSNVTVYKPDGTKISTEKKIEPVGSAGGSA [r15_967_JUSTAS] | < -1 | -0.635 ± 0.25 |
| SAGGSAGGSKKVVTYESVTLTVLVERTLPDPEGNPVTTTRVVEEPVRVTKVDFDTKVETYVVGSAGGSAGGS [r20_58_JUSTAS] | -0.623 ± 0.33 | -0.0343 ± 0.14 |
| SAGGSAGGSAPIVRLEFGPVIPLPDMSPDELKEKTAELVPEEYREKIKIVSVLDPDNPKEISAGGSAGGSAG [r3_340_TrMRF] | < -1 | -0.269 ± 0.12 |

| Sequence | folding stability dG unfold [1] [kcal/mol] | folding stability dG unfold [2] [kcal/mol] |
| --- | --- | --- |
| SAGGSAGGSALSPDDVEPIDEEPFHNPGGNPMNIGIWKNPDDGKPFIRNPGNGNPFPADDLSAGGSAGGSAG [r3_181_TrROS] | < -1 | -0.498 ± 0.12 |
| SAGGSSIPRALLEAMPPDAELEFEDPSSNVRIKVTRLGPDRLEITTTVYPPGPDTPVSSETTTDPLASAGGS [r16_163_JUSTAS] | -0.124 ± 0.28 | 0.371 ± 0.11 |
| SAGGSAGGSAGGVVKFPDDVLIERVETLPDGTVKIKVYKRIPGKGSPVEEIEFEDPGSSSAGGSAGGSAGGS [r10_934_JUSTAS] | < -1 | 0.235 ± 0.024 |
| SAGGSAGGSAGGIEELAKKYPNIKIVEVKTVKVTETNKDGKKTEKTKTEIKIYKDGEEISAGGSAGGSAGGS [r10_0_TrROS_Hall] | < -1 | -0.0124 ± 0.2 |
| SAGGSAGGMVTVELPGLPTPEEARARAEEVVAAIVAAGHPGEEVTLTVVYPGSGAAETFTVPLASAGGSAGG [r6_238_JUSTAS] | -0.328 ± 0.22 | 0.225 ± 0.059 |
| MEFTITVEYDEETNELTVTITYPGYTIEIRIDPDGRIRVEVRMDPGMSEEERKRMQELAEELAKKLEEALKS [r1_468_TrROS_Hall] | > 6 | 4.33 ± 0.69 |
| SAGGSSIEEIKEALKKGYNIKITPTTGTSTLVPVEELIKDPNITPETSLSDLGIKEITLIPPKNGKLVSAGG [r13_587_JUSTAS] | -0.257 ± 0.25 | 0.0152 ± 0.075 |
| SAGGSAGGSAGGGAMSPEPLGFKKVETKVEVVGGSPVIVVKLETPEGELELELPPDAKLSAGGSAGGSAGGS [r10_968_JUSTAS] | < -1 | -0.308 ± 0.12 |
| SAGGSAGGSAGPEIVLEGKPVELEVVEVGDKPVLIARFPDHYVVIDPEPDVIRLFSSEELSAGGSAGGSAGG [r11_9_TrMRF] | -0.449 ± 0.11 | -0.0154 ± 0.018 |
| SAGGSMVTETLSVEETVEPLPDGLVRVPVRTEIRVTRKDPTTGKWTTELRTEEVVLVVPASGLEAASAGGSA [r2_184_JUSTAS] | 0.195 ± 0.053 | 0.804 ± 0.02 |
| SAMDIEIEPTEGMMEIKLPGKEIHIMQHPNYMHIQIKYPEGEPVSIPIDPNSPPEDMIDNLLKLLEKAGSAG [r14_618_TrROS] | -0.499 ± 0.55 | 0.425 ± 0.042 |
| SAGGMPEGDFWVRIRIPVPKYEMERDPNDPNDYKMEPEWKPKEIWLPVKSPEALDEFRENGFEIEPFSAGGS [r8_482_TrROS] | -0.137 ± 0.16 | 0.251 ± 0.091 |
| SAKLTPEEIEELAEKLAKELAEKEGIEKVEVKVEKKEDGKVTVEIRFEKNKKTIRIEFENGEVKIVEIESAG [r14_925_TrROS_Hall] | 2.97 ± 0.72 | 2.62 ± 0.39 |
| SAGGMKIRLDNGKEIEINQSPGYMSIQIRPPDDGKKREYPFPMPDGENSMEDFVNEIANHGRITEIEPSAGG [r13_579_TrROS] | -0.249 ± 0.23 | 0.522 ± 0.075 |
| SAGGSAGGSAGPEIRVDDLEDGVVRITTVNVDPSTGAPVATTTTTLPRESLSPEVVALLSSAGGSAGGSAGG [r11_376_JUSTAS] | < -1 | 0.046 ± 0.038 |
| SAGGSTTITVPEEELEKKTGIPLGTPPEEVARKLDPVAKVTVTAVSSEKGPNGEPKRTVTFEVTPPQLSAGG [r13_723_JUSTAS] | < -1 | -0.236 ± 0.14 |
| SAGGSAGGSAGGMLVLIKTPKKPVLLSEEEVKSNPELLEKLKEEGFPIDGIEFLDKEKLSAGGSAGGSAGGS [r10_396_JUSTAS] | -0.451 ± 0.31 | -0.185 ± 0.1 |
| SAGSAKELAKEIADTIADEMQDRHPGFKPTEVEVKEIEVNPENGWVKINIEMRFPNGKPIWKPEITIPSAGG [r19_53_TrROS] | -0.557 ± 0.25 | -0.0323 ± 0.058 |

Source: the supplement of paper PMC12764529
